Reference: publication PMC8081927 (The Journal of Biological Chemistry, 2021)
Numbering of substitutions follows the chain as printed. Where “and” joins values, the source holds several entries; their conditions need not be identical. Equal values may be shown once. One block for each binder: values may come before it.

Assays:
Aβ1-42 fibrils [1] = target: T1, Aβ1-42 fibrils (Homo sapiens (species , …, UniProt P05067, biotin on 1% of the peptides in the fibrils for the bead assays; unlabeled fibrils on the blots); assay: flow cytometry on beads; Aβ fibrils (1% biotinylated, 1 μM) immobilised on streptavidin Dynabeads, blocked with 10% milk; antibody dilutions in PBSB with 1% milk, 3 h, 25 °C; detected with goat anti-human Fc AF647; apparent affinity (EC50); conditions: both partners purified
T1 construct: amyloid beta peptide 1-42 (Aβ1-42), cut product of the amyloid precursor protein; also called Aβ fibrils; Aβ42 fibrils; source: synthetic peptide, bought: Anaspec; assembled into fibrils at 37 °C with 10% fibril seeds, purified by ultracentrifugation

[2] = target: T2, Aβ aggregates formed in vivo in 5xFAD transgenic mouse brain (human); assay: far-Western, overlay or dot blot; immunodot blot: brain extracts (7 μg total protein) of 5xFAD and wild-type mice spotted on nitrocellulose; antibodies at 50 nM in TBST with 1% milk, overnight, 4 °C; conditions: one partner purified
T2 construct: Aβ derived from human amyloid precursor protein (APP) expressed in 5xFAD mice; the APP transgene carries the Swedish (K670N/M671L), Florida (I716V) and London (V717I) mutations; The target stands in a brain homogenate or tissue section, not as a pure peptide; also called 5xFAD samples; Aβ plaques

Aβ1-42 fibrils [3] = target: T1, Aβ1-42 fibrils; assay: far-Western, overlay or dot blot; immunodot blot: disaggregated Aβ and fibrils of Aβ, IAPP and α-synuclein spotted on nitrocellulose; antibodies at 10 nM in PBST with 1% milk, room temperature, 3 h; anti-human Fc HRP, X-ray film, 30 s or 45 min exposure; conditions: both partners purified
disaggregated Aβ1-42 = target: T3, disaggregated Aβ1-42 (Homo sapiens (species , …, UniProt P05067)); assay: as above; conditions: both partners purified
T3 construct: amyloid beta peptide 1-42 (Aβ1-42), cut product of the amyloid precursor protein; also called disaggregated (D) Aβ; disaggregated Aβ42; source: synthetic peptide, bought: Anaspec; dissolved in HFIP, then 50 mM NaOH, ultracentrifuged, neutralised

Aβ2-42 fibrils = target: T4, Aβ2-42 fibrils (Homo sapiens (species , …, UniProt P05067)); assay: far-Western, overlay or dot blot; immunodot blot: fibrils of Aβ1-42 and N-terminal truncations spotted on nitrocellulose at equal Thioflavin T fluorescence; antibodies at 10 nM in PBST with 1% milk; anti-human Fc HRP, 3 min exposure; conditions: both partners purified
T4 construct: amyloid beta peptide with N-terminal deletion, Aβ2-42; Amyloid fibrils; also called fibrils without the first residue; source: synthetic peptide, bought: Bachem; assembled into fibrils, purified by ultracentrifugation

Aβ3-42 fibrils = target: T5, Aβ3-42 fibrils (Homo sapiens (species , …, UniProt P05067)); assay: as above; conditions: both partners purified
T5 construct: amyloid beta peptide with N-terminal deletion, Aβ3-42; Amyloid fibrils; also called fibrils without the first two residues; source: synthetic peptide, bought: Bachem; assembled into fibrils, purified by ultracentrifugation

Aβ4-42 fibrils = target: T6, Aβ4-42 fibrils (Homo sapiens (species , …, UniProt P05067)); assay: as above; conditions: both partners purified
T6 construct: amyloid beta peptide with N-terminal deletion, Aβ4-42; Amyloid fibrils; source: synthetic peptide, bought: Bachem; assembled into fibrils, purified by ultracentrifugation

Aβ5-42 fibrils = target: T7, Aβ5-42 fibrils (Homo sapiens (species , …, UniProt P05067)); assay: as above; conditions: both partners purified
T7 construct: amyloid beta peptide with N-terminal deletion, Aβ5-42; Amyloid fibrils; source: synthetic peptide, bought: Bachem; assembled into fibrils, purified by ultracentrifugation

Aβ11-42 fibrils = target: T8, Aβ11-42 fibrils (Homo sapiens (species , …, UniProt P05067)); assay: as above; conditions: both partners purified
T8 construct: amyloid beta peptide with N-terminal deletion, Aβ11-42; Amyloid fibrils; source: synthetic peptide, bought: Anaspec; assembled into fibrils, purified by ultracentrifugation
T8 chain: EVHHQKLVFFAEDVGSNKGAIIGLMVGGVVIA

B1: AF1 (scFv, V domains shown)
VH: EVQLVESGGGLVQPGGSLRLSCAASGFNIKDTYIHWVRQAPGKGLEWVARIYPTNGYTRYADSVKGRFTISADTSKNTAYLQMNSLRAEDTAVYYCARDGYDGSYFVGYDYNDFYDYWGQGTLVTVSS
VL: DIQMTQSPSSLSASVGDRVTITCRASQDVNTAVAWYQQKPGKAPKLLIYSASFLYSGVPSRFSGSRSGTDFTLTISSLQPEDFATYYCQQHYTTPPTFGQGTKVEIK
notes: scFv-Fc fusion protein; also called lead antibody; parental antibody; source: HEK293-6E expression plasmids, transfected cells, purified from the medium (Protein A)
EC50 (Aβ1-42 fibrils [1]): 0.099 µM

B4: crenezumab (variable domains grafted onto an IgG1 scaffold with a human Fc fragment) (antibody, V domains shown)
VH: EVQLVESGGGLVQPGGSLRLSCAASGFTFSSYGMSWVRQAPGKGLELVASINSNGGSTYYPDSVKGRFTISRDNAKNSLYLQMNSLRAEDTAVYYCASGDYWGQGTTVTVSS
VL: DIVMTQSPLSLPVTPGEPASISCRSSQSLVYSNGDTYLHWYLQKPGQSPQLLIYKVSNRFSGVPDRFSGSGSGTDFTLKISRVEAEDVGVYYCSQSTHVPWTFGQGTKVEIK
notes: heavy-chain variable domain of crenezumab; light-chain variable domain of crenezumab; IgG1 here; source: HEK293-6E expression plasmids, transfected cells, purified from the medium (Protein A)
binding result (Aβ2-42 fibrils): binds | binding result (Aβ3-42 fibrils): binds | binding result (Aβ4-42 fibrils): binds | binding result (Aβ5-42 fibrils): binds | binding result (Aβ11-42 fibrils): binds

Second part, the binder after the results:

binding result [2]: binds | binding result (Aβ1-42 fibrils [3]): binds | binding result (disaggregated Aβ1-42): binds
B2: clone 93 (scFv, V domains shown)
VH: B1 VH with T54S, D62G
VL: DIQMTQSPSSLSASVGDRVTITCRASQNVYNAVTWYQQKPGKAPKLLIYSASFLYSGVPSRFSGSRSGTDFTLTISSLQPEDFATYYCQQHNTYPPTFGQGTKVEIK
notes: scFv-Fc fusion protein; source: HEK293-6E expression plasmids, transfected cells, purified from the medium (Protein A)

EC50 (Aβ1-42 fibrils [1]): 0.008 µM and 0.018 µM
B3: clone 97 (scFv, V domains shown)
VH: B1 VH with T54A, N55S, Y57A
VL: B2 VL with Y30A, N31Y, N92S
notes: scFv-Fc fusion protein; Parent of 97A3; source: HEK293-6E expression plasmids, transfected cells, purified from the medium (Protein A)
